Measured values as given in publication PMC9482650, “Quantitative fragmentomics allow affinity mapping of interactomes” (Nature Communications, 2022).
One block for each binder: values may come before it.

What was measured:
Test in all cases: holdup assay
Parameters in all cases: key: below the threshold = too weak to quantify, mostly under pKd 3.1 to 4
[1] = target: HTRA1, Q92743
[2] = target: T1, APBA3_1, O96018
T1 sequence (O96018 389-490, limits assumed, looked up): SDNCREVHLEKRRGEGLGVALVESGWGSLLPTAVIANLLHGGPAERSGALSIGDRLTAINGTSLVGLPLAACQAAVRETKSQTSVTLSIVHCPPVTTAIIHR

[3] = target: T2, DLG3_2, Q92796
T2 sequence (Q92796 221-321, limits assumed, looked up): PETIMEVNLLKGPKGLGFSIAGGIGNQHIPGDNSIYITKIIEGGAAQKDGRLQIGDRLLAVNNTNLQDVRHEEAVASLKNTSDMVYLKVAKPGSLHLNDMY

[4] = target: LNX1_2, Q8TBB1
[5] = target: LAP2, Q96RT1
[6] = target: T3, HTRA3, P83110
T3 sequence (P83110 354-453, limits assumed, looked up): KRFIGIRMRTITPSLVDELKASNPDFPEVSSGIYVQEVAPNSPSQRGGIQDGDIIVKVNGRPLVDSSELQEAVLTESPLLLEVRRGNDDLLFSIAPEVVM

[7] = target: SCRIB_1, Q14160
[8] = target: T4, SNTG1, Q9NSN8
T4 sequence (Q9NSN8 52-150, limits assumed, looked up): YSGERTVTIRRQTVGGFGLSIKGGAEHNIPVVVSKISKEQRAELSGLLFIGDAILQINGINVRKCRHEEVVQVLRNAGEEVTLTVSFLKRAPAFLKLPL

[9] = target: T5, DFNB31_3, Q9P202
T5 sequence (Q9P202 811-907, limits assumed, looked up): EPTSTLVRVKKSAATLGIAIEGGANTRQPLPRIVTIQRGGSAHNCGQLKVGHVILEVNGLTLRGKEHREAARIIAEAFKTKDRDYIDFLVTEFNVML

[10] = target: MAGI2_4, Q86UL8
[11] = target: IL16_4, Q14005
[12] = target: T6, APBA2_1, Q99767
T6 sequence (Q99767 563-664, limits assumed, looked up): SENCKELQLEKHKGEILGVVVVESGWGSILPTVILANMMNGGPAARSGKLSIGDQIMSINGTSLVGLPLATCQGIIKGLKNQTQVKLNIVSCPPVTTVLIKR

[13] = target: DLG4_3, P78352
[14] = target: T7, DLG3_3, Q92796
T7 sequence (Q92796 374-475, limits assumed, looked up): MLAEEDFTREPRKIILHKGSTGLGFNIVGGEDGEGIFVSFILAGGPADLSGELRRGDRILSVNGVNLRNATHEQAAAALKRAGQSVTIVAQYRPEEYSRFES

[15] = target: Inadl_9, Q8NI35
[16] = target: GRASP, Q7Z6J2
[17] = target: T8, SNTA1, Q13424
T8 sequence (Q13424 82-180, limits assumed, looked up): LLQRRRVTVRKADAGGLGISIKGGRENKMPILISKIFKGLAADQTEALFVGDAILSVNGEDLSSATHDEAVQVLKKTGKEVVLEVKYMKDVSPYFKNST

[18] = target: T9, PARD3B_1, Q8TEW8
T9 sequence (Q8TEW8 196-299, limits assumed, looked up): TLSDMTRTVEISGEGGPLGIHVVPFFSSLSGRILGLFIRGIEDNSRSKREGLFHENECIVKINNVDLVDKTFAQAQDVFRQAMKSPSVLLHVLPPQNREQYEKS

[19] = target: NHERF2_2, Q15599
[20] = target: GRIP2_5, Q9C0E4
[21] = target: T10, MPP6, Q9NZW5
T10 sequence (Q9NZW5 125-219, limits assumed, looked up): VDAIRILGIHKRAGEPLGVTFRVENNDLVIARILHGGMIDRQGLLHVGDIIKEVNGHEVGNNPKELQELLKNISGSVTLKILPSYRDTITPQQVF

[22] = target: T11, DFNB31_2, Q9P202
T11 sequence (Q9P202 274-371, limits assumed, looked up): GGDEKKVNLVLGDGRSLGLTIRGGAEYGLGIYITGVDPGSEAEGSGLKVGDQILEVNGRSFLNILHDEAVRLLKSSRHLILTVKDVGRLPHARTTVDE

[23] = target: IL16_1, Q14005
[24] = target: Inadl_6, Q8NI35
[25] = target: Inadl_2, Q8NI35
[26] = target: MAST1, Q9Y2H9
[27] = plain residues with an end cap or a label only (N-terminal biotin on a linker: ado-ado)
[28] = plain residues with an end cap or a label only (N-terminal biotin on a linker: ahx)

Chain of IL16_4, Q14005 (Q14005 1229-1329): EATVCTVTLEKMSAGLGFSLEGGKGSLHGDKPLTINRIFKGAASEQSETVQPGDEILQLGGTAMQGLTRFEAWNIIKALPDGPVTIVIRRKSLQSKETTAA
Chain of LNX1_2, Q8TBB1 (Q8TBB1 371-470): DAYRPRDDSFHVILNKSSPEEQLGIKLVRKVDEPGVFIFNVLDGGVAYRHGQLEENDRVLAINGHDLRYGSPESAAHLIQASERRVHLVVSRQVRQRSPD
Chain of LAP2, Q96RT1 (Q96RT1 other isoform, or with tags, fused parts or gaps): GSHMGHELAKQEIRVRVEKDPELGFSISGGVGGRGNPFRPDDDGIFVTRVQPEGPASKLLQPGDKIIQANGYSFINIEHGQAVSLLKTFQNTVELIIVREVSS
Chain of HTRA1, Q92743 (Q92743 360-477): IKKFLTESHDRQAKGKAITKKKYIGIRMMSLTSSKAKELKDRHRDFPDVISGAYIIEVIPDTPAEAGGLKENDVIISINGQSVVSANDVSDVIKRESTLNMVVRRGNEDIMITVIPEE
Chain of Inadl_6, Q8NI35 (Q8NI35 1058-1167): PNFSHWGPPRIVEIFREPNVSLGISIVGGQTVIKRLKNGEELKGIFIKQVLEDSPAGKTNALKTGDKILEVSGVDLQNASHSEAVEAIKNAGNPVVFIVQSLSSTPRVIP
Chain of MAST1, Q9Y2H9 (Q9Y2H9 962-1065): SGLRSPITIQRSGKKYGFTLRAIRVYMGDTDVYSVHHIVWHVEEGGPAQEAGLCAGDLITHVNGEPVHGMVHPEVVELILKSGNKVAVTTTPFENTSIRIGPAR
Chain of Inadl_9, Q8NI35 (Q8NI35 1530-1615): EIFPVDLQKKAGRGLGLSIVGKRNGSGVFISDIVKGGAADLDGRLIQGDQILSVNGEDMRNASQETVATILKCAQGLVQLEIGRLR
Chain of Inadl_2, Q8NI35 (Q8NI35 238-335): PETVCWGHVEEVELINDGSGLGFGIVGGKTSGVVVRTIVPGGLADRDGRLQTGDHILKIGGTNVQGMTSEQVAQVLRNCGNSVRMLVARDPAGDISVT
Chain of NHERF2_2, Q15599 (Q15599 142-238): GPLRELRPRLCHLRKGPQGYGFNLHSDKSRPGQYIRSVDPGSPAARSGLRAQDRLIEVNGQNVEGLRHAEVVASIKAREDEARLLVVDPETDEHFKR
Chain of SCRIB_1, Q14160 (Q14160 718-814): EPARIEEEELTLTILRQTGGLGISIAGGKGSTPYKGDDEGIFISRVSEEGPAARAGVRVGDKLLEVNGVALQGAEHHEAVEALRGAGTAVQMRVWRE
Chain of GRIP2_5, Q9C0E4 (Q9C0E4 544-642): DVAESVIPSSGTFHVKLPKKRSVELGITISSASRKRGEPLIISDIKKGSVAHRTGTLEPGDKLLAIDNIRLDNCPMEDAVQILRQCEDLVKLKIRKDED
Chain of DLG4_3, P78352 (P78352 306-403): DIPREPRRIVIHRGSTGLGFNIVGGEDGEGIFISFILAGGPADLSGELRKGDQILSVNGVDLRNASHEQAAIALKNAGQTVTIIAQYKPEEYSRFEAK
Chain of GRASP, Q7Z6J2 (Q7Z6J2 96-193): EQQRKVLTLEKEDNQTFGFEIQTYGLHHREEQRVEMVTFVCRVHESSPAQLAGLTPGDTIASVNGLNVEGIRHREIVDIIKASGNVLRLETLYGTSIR
Chain of MAGI2_4, Q86UL8 (Q86UL8 772-865): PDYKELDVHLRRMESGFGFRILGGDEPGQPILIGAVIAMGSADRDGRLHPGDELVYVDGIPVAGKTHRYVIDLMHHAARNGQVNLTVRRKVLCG
Chain of IL16_1, Q14005 (Q14005 210-306): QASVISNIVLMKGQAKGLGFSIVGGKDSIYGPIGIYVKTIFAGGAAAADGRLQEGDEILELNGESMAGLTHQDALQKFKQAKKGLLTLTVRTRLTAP

Binder: QDEKVKESYV [ABCA1, O95477]
pKd [1, 28]: 4.28
pKd [2, 28]: below the threshold
pKd [3, 28]: 4.92
pKd [4, 28]: below the threshold
pKd [5, 28]: 4.41
pKd [6, 28]: 3.55
pKd [7, 28]: 4.15
pKd [8, 28]: 5.24
pKd [9, 28]: below the threshold
pKd [10, 28]: 4.04
pKd [11, 28]: below the threshold
pKd [12, 28]: below the threshold
pKd [13, 28]: 3.78
pKd [14, 28]: 3.97
pKd [15, 28]: 4.29
pKd [16, 28]: 3.57
pKd [17, 28]: 5.9
pKd [18, 28]: below the threshold
pKd [19, 28]: 3.64
pKd [20, 28]: below the threshold
pKd [21, 28]: below the threshold
pKd [22, 28]: 4.79
pKd [23, 28]: 4.91
pKd [24, 28]: 4.29
pKd [25, 28]: 3.93
pKd [26, 28]: 4.16

Binder: ARSAAASNYV [CLDN4, O14493]
pKd [1, 27]: 4.17
pKd [2, 27]: below the threshold
pKd [3, 27]: below the threshold
pKd [4, 27]: below the threshold
pKd [5, 27]: below the threshold
pKd [6, 27]: 4.15
pKd [7, 27]: below the threshold
pKd [8, 27]: below the threshold
pKd [9, 27]: below the threshold
pKd [10, 27]: 3.65
pKd [11, 27]: below the threshold
pKd [12, 27]: below the threshold
pKd [13, 27]: below the threshold
pKd [14, 27]: below the threshold
pKd [15, 27]: 3.71
pKd [16, 27]: below the threshold
pKd [17, 27]: 3.63
pKd [18, 27]: 3.65
pKd [19, 27]: below the threshold
pKd [20, 27]: below the threshold
pKd [21, 27]: below the threshold
pKd [22, 27]: below the threshold
pKd [23, 27]: below the threshold
pKd [24, 27]: below the threshold
pKd [25, 27]: below the threshold
pKd [26, 27]: 3.66

Other lines, results leading:

pKd [1, 27]: 3.85
pKd [2, 27]: below the threshold
pKd [3, 27]: 4.14
pKd [4, 27]: below the threshold
pKd [5, 27]: 4.09
pKd [6, 27]: 3.58
pKd [7, 27]: below the threshold
pKd [8, 27]: below the threshold
pKd [9, 27]: 3.83
pKd [10, 27]: below the threshold
pKd [11, 27]: below the threshold
pKd [12, 27]: below the threshold
pKd [13, 27]: below the threshold
pKd [14, 27]: below the threshold
pKd [15, 27]: below the threshold
pKd [16, 27]: below the threshold
pKd [17, 27]: below the threshold
pKd [18, 27]: below the threshold
pKd [19, 27]: below the threshold
pKd [20, 27]: below the threshold
pKd [21, 27]: below the threshold
pKd [22, 27]: below the threshold
pKd [23, 27]: 3.61
pKd [24, 27]: below the threshold
pKd [25, 27]: below the threshold
pKd [26, 27]: below the threshold
Binder: QRPYRRGSEI [KCNJ18, B7U540]

pKd [1, 27]: below the threshold
pKd [2, 27]: below the threshold
pKd [3, 27]: 4.35
pKd [4, 27]: below the threshold
pKd [5, 27]: below the threshold
pKd [6, 27]: below the threshold
pKd [7, 27]: 3.89
pKd [8, 27]: below the threshold
pKd [9, 27]: below the threshold
pKd [10, 27]: below the threshold
pKd [11, 27]: below the threshold
pKd [12, 27]: below the threshold
pKd [13, 27]: 4.12
pKd [14, 27]: 3.98
pKd [15, 27]: below the threshold
pKd [16, 27]: below the threshold
pKd [17, 27]: below the threshold
pKd [18, 27]: below the threshold
pKd [19, 27]: below the threshold
pKd [20, 27]: below the threshold
pKd [21, 27]: below the threshold
pKd [22, 27]: below the threshold
pKd [23, 27]: 3.55
pKd [24, 27]: below the threshold
pKd [25, 27]: below the threshold
pKd [26, 27]: 4.06
Binder: NISYRRESAI [KCNJ4, P48050]
